Assay results: patent US20260001937A1, “NOVEL RECOMBINANT FIBRINOGEN VARIANTS FOR FIBRIN SEALANTS FOR SURGICAL WOUND CARE” (Julius-Maximilians-Universität Würzburg, priority 2022, published 2026)
Blank lines part the entries; values can stand above or below the molecule they belong to.

What was measured:
[1] = system: ExpiCHO-S cell supernatant (degradation of fibrinogen α-chain); assay: Screening of inhibitors for Fbg degradation in ExpiCHO-S cell supernatant (SDS-PAGE); type: biochemical, Chinese hamster; settings: commercial human Fbg 3.3 mg/mL, 37 C, several days, Aprotinin 50 μg/mL, EDTA 4 mM, 1,10 Phenanthroline 1 mM, UK 370106 100 μM
Description: ExpiCHO-S cells were cultured to a density of 6×10^6 cells/mL. Afterwards, cells were centrifuged for 4 min at 1000 rpm at RT and the supernatant was collected. Commercially available fibrinogen (SigmaAldrich) was mixed with the supernatant to a final concentration of 3.3 mg/mL and a volume of 200 μl. The mixture incubated at 37° C. and 750 rpm and samples were taken at 0, 24 and 48 h. For the screening the different inhibitors were added to the mixture (final concentrations: PMSF: 1 mM; Aprotinin: 50 μg/mL; GM6001: 25 μM; EDTA: 4 mM; 1,10 Phenanthroline: 1 mM; UK 370106: 100 μM). As control fibrinogen was incubated in 10 mM Tris/HCl, 150 mM NaCl (pH 7.5) under the same conditions. For the visualization of fibrinogen degradation, 20 μL of the mixtures were analyzed using SDS-PAGE.
Commercially available human Fbg was incubated with the supernatant taken from the CHO cells used for the expression and incubated the protein at 37 C for several days.

[2] = molecular target: T1, human plasmin (Homo sapiens, UniProt P00747); assay: Plasmin digest in solution of Fbg and rFbg variants, high-resolution ESI-MS of γ-chain cleavage sites; type: biochemical; settings: for plasmin cleavage at the 4 sites K88, K111, K382, K399 of the γ-chain: fibrinogen solution 1 mg/mL, plasmin 0.5 U/mL, 24 h, 37° C., high-resolution ESI-MS; for plasmin cleavage at position 382 of the γ-chain (FIG. 5): peptide fragments after plasmin and additional ProAlanase cleavage, both cleaved and non-cleaved peptides detected
T1 construct: Active plasmin is a serine protease that is derived from its zymogen plasminogen; purchased Merck
Description: In order to analyze plasmin digestion of mutated restriction sites, 100 μL of human plasmin (Merck) (0.5 U/mL) were added to 100 μg of Fbg and rFbg (Ala and His) and incubated for 24 h at 37° C. and 130 rpm in order to ensure complete cleavage. Afterwards, samples were stored at −80° C. For the analysis of the time-dependent cleavage site determination and quantification of plasmin, fibrin gels (20 mg/mL) were incubated with different plasmin concentrations ranging from 0.005 mU/mL-0.5 U/mL. Samples were taken at different timepoints from 1 min to 24 h. PMSF (1 mM) was added to the sample and heated at 95° C. for 10 minutes to ensure plasmin inactivation. Samples were stored at −80° C.
Proteins were digested either with plasmin alone (vide supra) or with plasmin and ProAlanase (ProAla) (Promega) with slight differences in handling. For all digests, all samples (WT/HIS/ALA) were brought to a concentration of 0.2 μg/μL in 50 mM tris buffer. For “plasmin only” samples were immediately purified (see below). For ProAla (Promega), 50 μL of 8M Guanidinium Hydrochloride were added to 10 μg (50 μL) of protein stock solution and briefly heated to ensure denaturation. To enable specific ProAla digest the solution was acidified using 900 μL of 32 mM HCl. After pH was checked to be in the range of 1-1.5, ProAla was added (1:50 ProAla:Protein; […]), proteolysis was allowed to continue for 2.5 h. Afterwards, pH was set to slightly basic by addition of 0.5-1 mL of 2 M Tris buffer. In the next step, the samples were immediately purified.
Precursor Tolerance of 15 ppm, fragment mass tolerance of 20 ppm, digestion C-terminal of K (non-specific), modifications are concurrent with the PMI-Byos recommendations for sequence variant analysis workflows (two rare and common modifications allowed).
Precursor Tolerance of 15 ppm, fragment mass tolerance of 20 ppm, digestion C-terminal of A and P (non-specific), modifications are concurrent with the PMI-Byos recommendations for sequence variant analysis workflows (two rare and common modifications allowed).
The α-chain plays an important part in the gelation process of fibrin. Due to the truncated α-chain gel formation with rFbg was not possible, as the production of intact complex (compare above) was still ongoing. Therefore, plasmin digests in solution with WT as well as both Ala- and His-rFbg mutants was performed to investigate if the inserted mutations are limiting proteolytic efficiency of plasmin at the respective cleavage sites. Plasmin was added to the fibrinogen solution (1 mg/mL) to a final concentration of 0.5 U/mL and the mixture was incubated for 24 h to ensure complete cleavage of fibrinogen. […] At some positions both cleaved and non-cleaved peptides were detected, however no cleavage did contain a mutation. This might be due to residual WT-Fbg peptides either on the column (carryover) or through residual WT-Fbg at any point in the workup.

[3] = system: ExpiCHO-S cells; settings: literature report (ref. 51); cited from earlier work
[4] = system: His-rFbgH433R435
[5] = molecular target: T2, His-rFbgH433R435
T2 chain 1: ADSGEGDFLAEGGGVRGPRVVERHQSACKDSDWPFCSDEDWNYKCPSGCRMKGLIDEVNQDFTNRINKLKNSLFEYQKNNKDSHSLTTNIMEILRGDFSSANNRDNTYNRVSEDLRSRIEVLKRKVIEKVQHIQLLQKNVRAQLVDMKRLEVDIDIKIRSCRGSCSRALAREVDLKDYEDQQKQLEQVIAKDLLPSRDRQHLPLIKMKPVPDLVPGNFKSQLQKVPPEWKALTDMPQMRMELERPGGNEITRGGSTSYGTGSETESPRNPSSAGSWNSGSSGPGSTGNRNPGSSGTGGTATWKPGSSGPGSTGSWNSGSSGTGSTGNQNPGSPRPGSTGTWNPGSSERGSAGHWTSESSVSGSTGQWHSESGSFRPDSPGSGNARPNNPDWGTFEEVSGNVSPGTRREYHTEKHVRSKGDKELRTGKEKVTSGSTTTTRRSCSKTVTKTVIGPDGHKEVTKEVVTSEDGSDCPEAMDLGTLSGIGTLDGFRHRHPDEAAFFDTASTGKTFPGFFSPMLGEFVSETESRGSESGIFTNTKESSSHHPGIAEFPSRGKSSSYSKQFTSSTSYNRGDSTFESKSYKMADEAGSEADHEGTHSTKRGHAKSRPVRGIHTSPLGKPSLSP
T2 chain 2: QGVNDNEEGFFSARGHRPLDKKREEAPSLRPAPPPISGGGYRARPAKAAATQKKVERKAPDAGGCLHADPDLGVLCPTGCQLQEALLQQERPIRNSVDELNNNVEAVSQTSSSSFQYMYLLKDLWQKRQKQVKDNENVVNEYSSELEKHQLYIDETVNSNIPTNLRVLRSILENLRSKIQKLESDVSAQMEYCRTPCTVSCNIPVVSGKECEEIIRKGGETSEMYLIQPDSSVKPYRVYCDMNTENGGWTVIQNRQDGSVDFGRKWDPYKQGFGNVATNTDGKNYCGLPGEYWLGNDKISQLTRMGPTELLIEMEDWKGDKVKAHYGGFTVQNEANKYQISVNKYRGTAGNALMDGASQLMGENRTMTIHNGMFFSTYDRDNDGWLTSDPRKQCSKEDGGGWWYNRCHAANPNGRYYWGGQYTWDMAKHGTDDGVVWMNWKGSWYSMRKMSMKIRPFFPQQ
T2 chain 3: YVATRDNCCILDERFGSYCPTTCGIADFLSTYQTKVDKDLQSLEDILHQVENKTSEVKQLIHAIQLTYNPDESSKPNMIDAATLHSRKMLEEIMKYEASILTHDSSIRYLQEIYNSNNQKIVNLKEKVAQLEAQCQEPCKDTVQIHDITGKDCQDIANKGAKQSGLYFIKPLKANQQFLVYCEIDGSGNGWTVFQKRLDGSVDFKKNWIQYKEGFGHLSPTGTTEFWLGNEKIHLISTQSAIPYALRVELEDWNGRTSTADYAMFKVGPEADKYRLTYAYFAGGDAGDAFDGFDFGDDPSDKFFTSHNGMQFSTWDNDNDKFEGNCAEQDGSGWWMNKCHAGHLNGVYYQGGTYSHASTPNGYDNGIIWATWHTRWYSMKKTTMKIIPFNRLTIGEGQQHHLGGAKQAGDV

T1 sequence (P00747 97-580 limits assumed): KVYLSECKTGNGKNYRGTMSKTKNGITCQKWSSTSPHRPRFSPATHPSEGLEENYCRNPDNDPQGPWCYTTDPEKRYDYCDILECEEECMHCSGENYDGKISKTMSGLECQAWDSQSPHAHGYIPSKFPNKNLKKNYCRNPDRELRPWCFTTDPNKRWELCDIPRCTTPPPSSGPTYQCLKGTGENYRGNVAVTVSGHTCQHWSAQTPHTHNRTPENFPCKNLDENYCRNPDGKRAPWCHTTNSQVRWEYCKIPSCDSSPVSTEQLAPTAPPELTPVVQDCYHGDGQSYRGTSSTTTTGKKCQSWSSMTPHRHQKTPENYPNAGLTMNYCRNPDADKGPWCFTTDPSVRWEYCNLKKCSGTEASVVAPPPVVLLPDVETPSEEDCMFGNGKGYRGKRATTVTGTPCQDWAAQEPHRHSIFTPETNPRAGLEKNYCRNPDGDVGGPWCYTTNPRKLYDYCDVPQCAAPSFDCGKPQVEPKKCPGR
T1 sequence (P00747 581-810 limits assumed): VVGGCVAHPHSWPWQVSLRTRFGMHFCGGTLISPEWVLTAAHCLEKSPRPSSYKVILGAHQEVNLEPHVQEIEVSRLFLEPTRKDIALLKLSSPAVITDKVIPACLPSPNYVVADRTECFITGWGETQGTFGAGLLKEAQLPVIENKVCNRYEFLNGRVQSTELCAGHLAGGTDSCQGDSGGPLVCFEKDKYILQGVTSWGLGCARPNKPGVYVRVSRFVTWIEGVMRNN

Molecule: c1cnc2c(c1)ccc1cccnc12 [1,10 Phenantroline, 1,10 Phenanthroline]
state of the Fbg α-chain after incubation with CHO cell supernatant plus inhibitor [1]: intact α-chain was detected

Molecule: O=C(O)CN(CCN(CC(=O)O)CC(=O)O)CC(=O)O [EDTA]
state of the Fbg α-chain after incubation with CHO cell supernatant plus inhibitor [1]: intact α-chain was detected

Molecule: COC[C@@H](NC(=O)[C@@H](NC(=O)[C@H](CCCc1ccc(-c2ccccc2)c(C)c1)CC(=O)O)C(C)(C)C)c1ccccc1 [UK 370106, (βR)-β-[[[(1 S)-1-[[[(1 S)-2-Methoxy-1-phenylethyl]amino]carbonyl]-2,2-dimethylpropyl]amino]carbonyl]-2-methyl-[1,1′-biphenyl]-4-hexanoic acid]
state of the Fbg α-chain after incubation with CHO cell supernatant plus inhibitor [1]: intact α-chain was detected

plasmin cleavage at the 4 sites K88, K111, K382, K399 of the γ-chain [2]: no cleavage was detected
plasmin cleavage at position 382 of the γ-chain (FIG. 5) [2]: partial cleavage
Molecule: Ala-rFbg: recombinant fibrinogen of Aα-, Bβ- and γ-chain with γ-chain K88A, K111A, K382A, K399A

plasmin cleavage at the 4 sites K88, K111, K382, K399 of the γ-chain [2]: no cleavage was detected
plasmin cleavage at position 382 of the γ-chain (FIG. 5) [2]: partial cleavage
Molecule: His-rFbg: recombinant fibrinogen of Aα-, Bβ- and γ-chain with γ-chain K88H, K111H, K382H, K399H

plasmin cleavage at the 4 sites K88, K111, K382, K399 of the γ-chain [2]: could be detected
Molecule: WT: commercially available human fibrinogen (SigmaAldrich), wild type, used as control [reference compound]

Molecule: aprotinin
state of the Fbg α-chain after incubation with CHO cell supernatant plus inhibitor [1]: truncated α-chain is also visible
effect of inhibitor addition during CHO cell expression on proteolytic degradation of the fibrinogen α-chain [3]: did inhibit proteolytic degradation

Molecule: thrombin
thrombin-catalyzed fibrin polymerization, turbidity at 350 nm [4]: thrombin-induced fibrin polymerization of His-rFbgH433R435 was slightly reduced compared with control (pFbg), with a similar lag time and comparable absorption

B1: factor XIIIa (Fibrogammin, CSL Behring) (protein)
chain: GVNLQEFLNVTSVHLFKERWDTNKVDHHTDKYENNKLIVRRGQSFYVQIDFSRPYDPRRDLFRVEYVIGRYPQENKGTYIPVPIVSELQSGKWGAKIVMREDRSVRLSIQSSPKCIVGKFRMYVAVWTPYGVLRTSRNPETDTYILFNPWCEDDAVYLDNEKEREEYVLNDIGVIFYGEVNDIKTRSWSYGQFEDGILDTCLYVMDRAQMDLSGRGNPIKVSRVGSAMVNAKDDEGVLVGSWDNIYAYGVPPSAWTGSVDILLEYRSSENPVRYGQCWVFAGVFNTFLRCLGIPARIVTNYFSAHDNDANLQMDIFLEEDGNVNSKLTKDSVWNYHCWNEAWMTRPDLPVGFGGWQAVDSTPQENSDGMYRCGPASVQAIKHGHVCFQFDAPFVFAEVNSDLIYITAKKDGTHVVENVDATHIGKLIVTKQIGGDGMMDITDTYKFQEGQEEERLALETALMYGAKKPLNTEGVMKSRSNVDMDFEVENAVLGKDFKLSITFRNNSHNRYTITAYLSANITFYTGVPKAEFKKETFDVTLEPLSFKKEAVLIQAGEYMGQLLEQASLHFFVTARINETRDVLAKQKSTVLTIPEIIIKVRGTQVVGSDMTVTVEFTNPLKETLRNVWVHLDGPGVTRPMKKMFREIRPNSTVQWEEVCRPWVSGHRKLIASMSSDSLRHVYGELDVQIQRRPSM
FXIIIa-catalyzed cross-linking of gamma-chains, reducing SDS-PAGE [5]: the cross-linked γ-γ-dimer bands of rFbgH433R435 were visible after 5 min, indicating rapid lateral linkage
